Data set [1] deals with TagI, SRA-HNH modification-dependent restriction endonuclease from Thermocrispum agreste (Thermocrispum agreste). Kind of data set: SEC-MALS; multi-angle light scattering of TagI alone.
The target is the same in data set [2]. Kind of data set: SEC; analytical gel filtration of TagI alone; apparent molecular mass compared with the theoretical mass of the dimer.
The target in data set [3] is T1, TagI (Thermocrispum agreste, UniProt A0A3F2YM30 1-311).
T1 sequence: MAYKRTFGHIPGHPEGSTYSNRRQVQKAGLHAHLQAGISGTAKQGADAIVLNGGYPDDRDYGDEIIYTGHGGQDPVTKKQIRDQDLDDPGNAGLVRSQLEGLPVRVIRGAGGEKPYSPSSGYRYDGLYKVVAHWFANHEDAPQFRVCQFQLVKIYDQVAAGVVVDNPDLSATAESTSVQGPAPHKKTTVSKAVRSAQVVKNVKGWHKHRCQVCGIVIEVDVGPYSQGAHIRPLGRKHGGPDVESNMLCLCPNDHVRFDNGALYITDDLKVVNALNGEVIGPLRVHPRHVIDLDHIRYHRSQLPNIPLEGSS
Kind of data set: analytical gel filtration (SEC co-migration); 1, 2 or 4 duplexes per TagI dimer; migrated independently; analytical gel filtration; buffer, salt, pH and temperature not given in the material. As to conditions: protein: recombinant; chain copies: 2; blunt.

The target in data set [4] is T1, TagI. Kind of data set: analytical gel filtration (SEC co-migration); 1, 2 or 4 duplexes per TagI dimer; sharp complex peak, 93 kDa, about 1 duplex per dimer; analytical gel filtration; buffer, salt, pH and temperature not given in the material. The settings on record: protein: recombinant; chain copies: 2; blunt.

For the molecule “TagI, SRA-HNH modification-dependent restriction endonuclease from Thermocrispum agreste (enzyme)”, the stoichiometry N in data set [1] and in data set [2] was 2 throughout.

B1: 17mer unmodified duplex (dsDNA)
DNA 1: CCTAGAGCAGCAATCCC
DNA 2: GGGATTGCTGCTCTAGG
As for B1, in the data set with TagI [3], the binding result is “no binding”.

B2: 17mer fully methylated duplex (dsDNA)
DNA 1: CCTAGAGCAGCAATCCC
DNA 2: GGGATTGCTGCTCTAGG
modifications: 5mC at position 8 of strand 1 and position 8 of strand 2
With B2, the binding result in the data set with TagI [4] is on record as “binds”.

Values taken from publication PMC6212794, “Crystal structure of the modification-dependent SRA-HNH endonuclease TagI”.
